{"source": "patent US20220280439A1", "about": "“METHODS FOR LOWERING THE INFECTION RATE OF VIRUSES” (Finncure Oy, priority 2020, published 2022)", "origin": "cited, not measured here", "biological_target": "ACE2 (Homo sapiens, UniProt Q9BYF1)", "sequence (Q9BYF1 18-805)": "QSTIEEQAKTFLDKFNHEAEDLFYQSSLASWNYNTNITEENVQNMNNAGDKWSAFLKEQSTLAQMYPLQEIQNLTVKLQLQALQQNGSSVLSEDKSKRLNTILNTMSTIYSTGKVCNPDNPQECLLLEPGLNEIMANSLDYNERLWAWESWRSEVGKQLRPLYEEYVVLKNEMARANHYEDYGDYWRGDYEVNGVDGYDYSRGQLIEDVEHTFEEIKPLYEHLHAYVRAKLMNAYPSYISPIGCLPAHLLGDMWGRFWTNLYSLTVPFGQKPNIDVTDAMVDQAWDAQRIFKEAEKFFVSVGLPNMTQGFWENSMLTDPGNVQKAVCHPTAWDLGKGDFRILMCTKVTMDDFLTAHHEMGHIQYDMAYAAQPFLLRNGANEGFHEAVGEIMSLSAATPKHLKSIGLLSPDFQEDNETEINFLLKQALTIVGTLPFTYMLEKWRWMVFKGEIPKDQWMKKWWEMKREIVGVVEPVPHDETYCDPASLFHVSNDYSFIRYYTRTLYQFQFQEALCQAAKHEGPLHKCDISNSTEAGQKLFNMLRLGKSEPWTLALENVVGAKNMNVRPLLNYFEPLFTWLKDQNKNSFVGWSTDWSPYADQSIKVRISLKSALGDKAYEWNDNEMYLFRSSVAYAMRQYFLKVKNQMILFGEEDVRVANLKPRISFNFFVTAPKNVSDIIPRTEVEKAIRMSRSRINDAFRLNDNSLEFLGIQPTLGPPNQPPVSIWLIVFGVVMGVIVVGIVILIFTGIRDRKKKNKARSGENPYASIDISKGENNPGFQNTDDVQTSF", "details": "simulation, ref [8]; for binding affinity towards the ACE2 receptor: compared with hexapeptide YKYRYL"}
{"substance": "YKYNYI (Potential alternative synthetic hexapeptide variant) [alternative synthetic hexapeptide variant from simulation]", "values": [{"measurement": "binding affinity towards the ACE2 receptor", "value": "even stronger binding affinity"}]}
{"substance": "YKYRYL", "values": [{"measurement": "Kd", "setting": "binding to ACE2, estimated", "value": 46, "unit": "µM"}]}
{"substance": "YKYNYL (Potential alternative synthetic hexapeptide variant) [alternative synthetic hexapeptide variant from simulation]", "values": [{"measurement": "binding affinity towards the ACE2 receptor", "value": "even stronger binding affinity"}]}
